In patent US20210139548A1 (published 2021):
Each block holds one binder with its values, some of them ahead of it. *1 amine or outer side, *2 acyl side, *3 side chain or, on linkers, in order; H or OH if unused. Side-chain parts run from the residue outwards. The star is where a group is joined. C18 diacid = O=C(O)CCCCCCCCCCCCCCCCC(=O)*; γGlu = O=C(O)[C@H](CCC(=O)[*:2])N[*:1]; Isovaleryl = CC(C)CC(=O)*; AEEA = NCCOCCOCC(=O)O

Molecular target: T1, human neuropeptide Y2 receptor (human, UniProt P49146 1-381)
T1 construct: whole, on cells; also called hNPY2 receptor; hNPY2-R
T1 sequence (looked up): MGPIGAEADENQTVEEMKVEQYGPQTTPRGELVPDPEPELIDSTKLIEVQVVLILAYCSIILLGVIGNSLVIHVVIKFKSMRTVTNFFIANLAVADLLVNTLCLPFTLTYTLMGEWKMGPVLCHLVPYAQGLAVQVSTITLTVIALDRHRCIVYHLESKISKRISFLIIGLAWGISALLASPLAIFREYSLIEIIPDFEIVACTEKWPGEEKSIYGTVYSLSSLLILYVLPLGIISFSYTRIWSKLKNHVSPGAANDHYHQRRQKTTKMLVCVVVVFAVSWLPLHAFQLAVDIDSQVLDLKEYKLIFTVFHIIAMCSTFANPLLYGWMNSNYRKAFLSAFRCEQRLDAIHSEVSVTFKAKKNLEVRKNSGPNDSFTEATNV
Assay: radioligand competition (125I-PYY(1-36)), hNPY2R membranes
How it was run: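 Commercial human Y2 receptor membranes (0.5 μg protein/well) were incubated with peptide for 2 h at room temperature in 50 mM HEPES, 5 mM MgCl₂, 1 mM CaCl₂, pH 7.4, with 0.2% ovalbumin. Bound radioligand was separated on PEI-soaked GF/C filters and counted by scintillation, and IC₅₀ came from nonlinear sigmoidal regression.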

Ki: 0.66 nM
B1: Compound 95 (peptide)
peptide: Isovaleryl-APEK([AEEA-AEEA-γGlu-C18 diacid])PEEDASPAEIQRYYVSLRHYYNWLTRQRY-NH2
SMILES: CC[C@H](C)[C@H](NC(=O)[C@H](CCC(=O)O)NC(=O)[C@H](C)NC(=O)[C@@H]1CCCN1C(=O)[C@H](CO)NC(=O)[C@H](C)NC(=O)[C@H](CC(=O)O)NC(=O)[C@H](CCC(=O)O)NC(=O)[C@H](CCC(=O)O)NC(=O)[C@@H]1CCCN1C(=O)[C@H](CCCCNC(=O)COCCOCCNC(=O)COCCOCCNC(=O)CC[C@H](NC(=O)CCCCCCCCCCCCCCCCC(=O)O)C(=O)O)NC(=O)[C@H](CCC(=O)O)NC(=O)[C@@H]1CCCN1C(=O)[C@H](C)NC(=O)CC(C)C)C(=O)N[C@@H](CCC(N)=O)C(=O)N[C@@H](CCCNC(=N)N)C(=O)N[C@@H](Cc1ccc(O)cc1)C(=O)N[C@@H](Cc1ccc(O)cc1)C(=O)N[C@H](C(=O)N[C@@H](CO)C(=O)N[C@@H](CC(C)C)C(=O)N[C@@H](CCCNC(=N)N)C(=O)N[C@@H](Cc1c[nH]cn1)C(=O)N[C@@H](Cc1ccc(O)cc1)C(=O)N[C@@H](Cc1ccc(O)cc1)C(=O)N[C@@H](CC(N)=O)C(=O)N[C@@H](Cc1c[nH]c2ccccc12)C(=O)N[C@@H](CC(C)C)C(=O)N[C@H](C(=O)N[C@@H](CCCNC(=N)N)C(=O)N[C@@H](CCC(N)=O)C(=O)N[C@@H](CCCNC(=N)N)C(=O)N[C@@H](Cc1ccc(O)cc1)C(N)=O)[C@@H](C)O)C(C)C

Ki: 3.29 nM
B2: Compound 101 (peptide)
peptide: Isovaleryl-APEK([AEEA-AEEA-γGlu-C18 diacid])PEEDATPEELQRYYVELRHYYNWLTRQRY-NH2
SMILES: CC(C)CC(=O)N[C@@H](C)C(=O)N1CCC[C@H]1C(=O)N[C@@H](CCC(=O)O)C(=O)N[C@@H](CCCCNC(=O)COCCOCCNC(=O)COCCOCCNC(=O)CC[C@H](NC(=O)CCCCCCCCCCCCCCCCC(=O)O)C(=O)O)C(=O)N1CCC[C@H]1C(=O)N[C@@H](CCC(=O)O)C(=O)N[C@@H](CCC(=O)O)C(=O)N[C@@H](CC(=O)O)C(=O)N[C@@H](C)C(=O)N[C@H](C(=O)N1CCC[C@H]1C(=O)N[C@@H](CCC(=O)O)C(=O)N[C@@H](CCC(=O)O)C(=O)N[C@@H](CC(C)C)C(=O)N[C@@H](CCC(N)=O)C(=O)N[C@@H](CCCNC(=N)N)C(=O)N[C@@H](Cc1ccc(O)cc1)C(=O)N[C@@H](Cc1ccc(O)cc1)C(=O)N[C@H](C(=O)N[C@@H](CCC(=O)O)C(=O)N[C@@H](CC(C)C)C(=O)N[C@@H](CCCNC(=N)N)C(=O)N[C@@H](Cc1c[nH]cn1)C(=O)N[C@@H](Cc1ccc(O)cc1)C(=O)N[C@@H](Cc1ccc(O)cc1)C(=O)N[C@@H](CC(N)=O)C(=O)N[C@@H](Cc1c[nH]c2ccccc12)C(=O)N[C@@H](CC(C)C)C(=O)N[C@H](C(=O)N[C@@H](CCCNC(=N)N)C(=O)N[C@@H](CCC(N)=O)C(=O)N[C@@H](CCCNC(=N)N)C(=O)N[C@@H](Cc1ccc(O)cc1)C(N)=O)[C@@H](C)O)C(C)C)[C@@H](C)O

Ki: 0.87 nM
B3: Compound 102 (peptide)
peptide: Isovaleryl-APEK([AEEA-AEEA-γGlu-C18 diacid])PEEDASPEELQRYYVTLRHYYNWLTRQRY-NH2
SMILES: CC(C)CC(=O)N[C@@H](C)C(=O)N1CCC[C@H]1C(=O)N[C@@H](CCC(=O)O)C(=O)N[C@@H](CCCCNC(=O)COCCOCCNC(=O)COCCOCCNC(=O)CC[C@H](NC(=O)CCCCCCCCCCCCCCCCC(=O)O)C(=O)O)C(=O)N1CCC[C@H]1C(=O)N[C@@H](CCC(=O)O)C(=O)N[C@@H](CCC(=O)O)C(=O)N[C@@H](CC(=O)O)C(=O)N[C@@H](C)C(=O)N[C@@H](CO)C(=O)N1CCC[C@H]1C(=O)N[C@@H](CCC(=O)O)C(=O)N[C@@H](CCC(=O)O)C(=O)N[C@@H](CC(C)C)C(=O)N[C@@H](CCC(N)=O)C(=O)N[C@@H](CCCNC(=N)N)C(=O)N[C@@H](Cc1ccc(O)cc1)C(=O)N[C@@H](Cc1ccc(O)cc1)C(=O)N[C@H](C(=O)N[C@H](C(=O)N[C@@H](CC(C)C)C(=O)N[C@@H](CCCNC(=N)N)C(=O)N[C@@H](Cc1c[nH]cn1)C(=O)N[C@@H](Cc1ccc(O)cc1)C(=O)N[C@@H](Cc1ccc(O)cc1)C(=O)N[C@@H](CC(N)=O)C(=O)N[C@@H](Cc1c[nH]c2ccccc12)C(=O)N[C@@H](CC(C)C)C(=O)N[C@H](C(=O)N[C@@H](CCCNC(=N)N)C(=O)N[C@@H](CCC(N)=O)C(=O)N[C@@H](CCCNC(=N)N)C(=O)N[C@@H](Cc1ccc(O)cc1)C(N)=O)[C@@H](C)O)[C@@H](C)O)C(C)C

Ki: 0.44 nM
B4: Compound 100 (peptide)
peptide: Isovaleryl-APAK([AEEA-AEEA-γGlu-C18 diacid])PPEDASPEELQRYYVSLRHYYNWLTRQRY-NH2
SMILES: CC(C)CC(=O)N[C@@H](C)C(=O)N1CCC[C@H]1C(=O)N[C@@H](C)C(=O)N[C@@H](CCCCNC(=O)COCCOCCNC(=O)COCCOCCNC(=O)CC[C@H](NC(=O)CCCCCCCCCCCCCCCCC(=O)O)C(=O)O)C(=O)N1CCC[C@H]1C(=O)N1CCC[C@H]1C(=O)N[C@@H](CCC(=O)O)C(=O)N[C@@H](CC(=O)O)C(=O)N[C@@H](C)C(=O)N[C@@H](CO)C(=O)N1CCC[C@H]1C(=O)N[C@@H](CCC(=O)O)C(=O)N[C@@H](CCC(=O)O)C(=O)N[C@@H](CC(C)C)C(=O)N[C@@H](CCC(N)=O)C(=O)N[C@@H](CCCNC(=N)N)C(=O)N[C@@H](Cc1ccc(O)cc1)C(=O)N[C@@H](Cc1ccc(O)cc1)C(=O)N[C@H](C(=O)N[C@@H](CO)C(=O)N[C@@H](CC(C)C)C(=O)N[C@@H](CCCNC(=N)N)C(=O)N[C@@H](Cc1c[nH]cn1)C(=O)N[C@@H](Cc1ccc(O)cc1)C(=O)N[C@@H](Cc1ccc(O)cc1)C(=O)N[C@@H](CC(N)=O)C(=O)N[C@@H](Cc1c[nH]c2ccccc12)C(=O)N[C@@H](CC(C)C)C(=O)N[C@H](C(=O)N[C@@H](CCCNC(=N)N)C(=O)N[C@@H](CCC(N)=O)C(=O)N[C@@H](CCCNC(=N)N)C(=O)N[C@@H](Cc1ccc(O)cc1)C(N)=O)[C@@H](C)O)C(C)C

Ki: 0.95 nM
B5: Compound 103 (peptide)
peptide: Isovaleryl-APAK([AEEA-AEEA-γGlu-C18 diacid])PEEDASEEELQRYYVSLRHYYNWLTRQRY-NH2
SMILES: CC(C)CC(=O)N[C@@H](C)C(=O)N1CCC[C@H]1C(=O)N[C@@H](C)C(=O)N[C@@H](CCCCNC(=O)COCCOCCNC(=O)COCCOCCNC(=O)CC[C@H](NC(=O)CCCCCCCCCCCCCCCCC(=O)O)C(=O)O)C(=O)N1CCC[C@H]1C(=O)N[C@@H](CCC(=O)O)C(=O)N[C@@H](CCC(=O)O)C(=O)N[C@@H](CC(=O)O)C(=O)N[C@@H](C)C(=O)N[C@@H](CO)C(=O)N[C@@H](CCC(=O)O)C(=O)N[C@@H](CCC(=O)O)C(=O)N[C@@H](CCC(=O)O)C(=O)N[C@@H](CC(C)C)C(=O)N[C@@H](CCC(N)=O)C(=O)N[C@@H](CCCNC(=N)N)C(=O)N[C@@H](Cc1ccc(O)cc1)C(=O)N[C@@H](Cc1ccc(O)cc1)C(=O)N[C@H](C(=O)N[C@@H](CO)C(=O)N[C@@H](CC(C)C)C(=O)N[C@@H](CCCNC(=N)N)C(=O)N[C@@H](Cc1c[nH]cn1)C(=O)N[C@@H](Cc1ccc(O)cc1)C(=O)N[C@@H](Cc1ccc(O)cc1)C(=O)N[C@@H](CC(N)=O)C(=O)N[C@@H](Cc1c[nH]c2ccccc12)C(=O)N[C@@H](CC(C)C)C(=O)N[C@H](C(=O)N[C@@H](CCCNC(=N)N)C(=O)N[C@@H](CCC(N)=O)C(=O)N[C@@H](CCCNC(=N)N)C(=O)N[C@@H](Cc1ccc(O)cc1)C(N)=O)[C@@H](C)O)C(C)C
